This note sets out measurements from IntAct's records for PubMed 10660620.

The target of this test is pilra_human PILRA (UniProt Q9UKJ1).
Sequence of pilra_human PILRA (Q9UKJ1 whole entry): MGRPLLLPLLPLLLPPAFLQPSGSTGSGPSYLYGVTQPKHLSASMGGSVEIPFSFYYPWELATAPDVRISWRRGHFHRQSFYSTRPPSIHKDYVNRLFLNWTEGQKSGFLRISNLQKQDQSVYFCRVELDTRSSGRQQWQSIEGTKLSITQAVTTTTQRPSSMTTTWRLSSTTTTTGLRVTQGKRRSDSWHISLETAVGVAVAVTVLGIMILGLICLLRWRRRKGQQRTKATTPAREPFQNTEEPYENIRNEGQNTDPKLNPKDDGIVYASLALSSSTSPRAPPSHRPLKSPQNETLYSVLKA

Sequence of Tyrosine-protein phosphatase non-receptor type 6 (Homo sapiens), P29350 D419A (P29350 whole entry D419A): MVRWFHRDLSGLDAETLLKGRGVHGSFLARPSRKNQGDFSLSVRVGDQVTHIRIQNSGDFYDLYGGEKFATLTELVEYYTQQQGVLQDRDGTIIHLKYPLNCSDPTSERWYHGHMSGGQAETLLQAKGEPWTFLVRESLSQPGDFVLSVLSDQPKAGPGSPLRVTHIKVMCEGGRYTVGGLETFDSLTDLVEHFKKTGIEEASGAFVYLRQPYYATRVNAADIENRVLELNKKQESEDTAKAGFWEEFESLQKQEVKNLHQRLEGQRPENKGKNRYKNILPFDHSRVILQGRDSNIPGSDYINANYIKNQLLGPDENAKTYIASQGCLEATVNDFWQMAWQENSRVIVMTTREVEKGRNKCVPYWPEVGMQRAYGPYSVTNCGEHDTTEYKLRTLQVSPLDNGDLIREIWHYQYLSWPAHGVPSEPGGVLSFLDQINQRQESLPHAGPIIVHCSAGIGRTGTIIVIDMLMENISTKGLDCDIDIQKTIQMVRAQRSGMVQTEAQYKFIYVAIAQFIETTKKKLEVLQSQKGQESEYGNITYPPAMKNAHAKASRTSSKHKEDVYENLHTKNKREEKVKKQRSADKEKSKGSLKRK

Regarding “Tyrosine-protein phosphatase non-receptor type 6 (Homo sapiens), P29350 D419A”, the “effect of a mutation on the interaction” value is on record as “increasing interaction”.
